Publication PMC7189476

Biological target: human PCNA, purified (human), P12004
Experiment: SPR; Bio-Rad XPR 36; human PCNA (~350 RU) immobilised on GLC chip by amine coupling; subunits injected at 125 to 2000 nM; 25 mM HEPES pH 7.5, 10% glycerol, 200 mM sodium acetate pH 7.8, 8 mM magnesium acetate, 1 mM DTT, 0.005% Tween-20, 0.2 mg/ml BSA; 20°C; 1:1 (Langmuir) model
Settings: remark: other sources report otherwise

Sequence of human PCNA, purified (human), P12004 (P12004 whole entry): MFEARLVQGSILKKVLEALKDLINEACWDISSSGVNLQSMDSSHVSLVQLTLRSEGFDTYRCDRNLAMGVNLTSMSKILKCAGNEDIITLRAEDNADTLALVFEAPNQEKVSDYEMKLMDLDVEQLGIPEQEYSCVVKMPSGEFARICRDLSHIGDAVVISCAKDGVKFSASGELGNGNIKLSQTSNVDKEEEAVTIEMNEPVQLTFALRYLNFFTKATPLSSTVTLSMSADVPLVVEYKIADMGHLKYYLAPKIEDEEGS

Kd: 114 nM | koff: 0.0002 s⁻¹ | kon: 1750 M⁻¹ s⁻¹ | response units: 90 RU
B1: p125, purified, P28340 1-1107 (natural protein)
chain: MDGKRRPGPGPGVPPKRARGGLWDDDDAPRPSQFEEDLALMEEMEAEHRLQEQEEEELQSVLEGVADGQVPPSAIDPRWLRPTPPALDPQTEPLIFQQLEIDHYVGPAQPVPGGPPPSRGSVPVLRAFGVTDEGFSVCCHIHGFAPYFYTPAPPGFGPEHMGDLQRELNLAISRDSRGGRELTGPAVLAVELCSRESMFGYHGHGPSPFLRITVALPRLVAPARRLLEQGIRVAGLGTPSFAPYEANVDFEIRFMVDTDIVGCNWLELPAGKYALRLKEKATQCQLEADVLWSDVVSHPPEGPWQRIAPLRVLSFDIECAGRKGIFPEPERDPVIQICSLGLRWGEPEPFLRLALTLRPCAPILGAKVQSYEKEEDLLQAWSTFIRIMDPDVITGYNIQNFDLPYLISRAQTLKVQTFPFLGRVAGLCSNIRDSSFQSKQTGRRDTKVVSMVGRVQMDMLQVLLREYKLRSYTLNAVSFHFLGEQKEDVQHSIITDLQNGNDQTRRRLAVYCLKDAYLPLRLLERLMVLVNAVEMARVTGVPLSYLLSRGQQVKVVSQLLRQAMHEGLLMPVVKSEGGEDYTGATVIEPLKGYYDVPIATLDFSSLYPSIMMAHNLCYTTLLRPGTAQKLGLTEDQFIRTPTGDEFVKTSVRKGLLPQILENLLSARKRAKAELAKETDPLRRQVLDGRQLALKVSANSVYGFTGAQVGKLPCLEISQSVTGFGRQMIEKTKQLVESKYTVENGYSTSAKVVYGDTDSVMCRFGVSSVAEAMALGREAADWVSGHFPSPIRLEFEKVYFPYLLISKKRYAGLLFSSRPDAHDRMDCKGLEAVRRDNCPLVANLVTASLRRLLIDRDPEGAVAHAQDVISDLLCNRIDISQLVITKELTRAASDYAGKQAHVELAERMRKRDPGSAPSLGDRVPYVIISAAKGVAAYMKSEDPLFVLEHSLPIDTQYYLEQQLAKPLLRIFEPILGEGRAEAVLLRGDHTRCKTVLTGKVGGLLAFAKRRNCCIGCRTVLSHQGAVCEFCQPRESELYQKEVSHLNALEERFSRLWTQCQRCQGSLHEDVICTSRDCPIFYMRKKVRKDLEDQEQLLRRFGPPGPEAW
